Target: mNeonGreen-tagged T-bet DNA binding domain (aa 135-326) Q160A (mouse) (UniProt Q9JKD8)
Experiment: FRET or BRET; flow-cytometric FRET in HEK293T cells co-transfected with 730 ng of each vector for mTagBFP- and mNeonGreen-tagged proteins; read 32 hours after transfection; 405 nm laser line, 530/30 bandpass filter; DFRET efficiency

Sequence of mTagBFP-tagged GATA3 DNA binding domain (aa 259-369) (P23772 259-369): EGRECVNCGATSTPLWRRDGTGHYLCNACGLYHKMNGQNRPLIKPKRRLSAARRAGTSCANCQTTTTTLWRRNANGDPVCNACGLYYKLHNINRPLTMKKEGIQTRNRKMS
Sequence of mNeonGreen-tagged T-bet DNA binding domain (aa 135-326) Q160A (mouse) (Q9JKD8 135-326, stated change not applied): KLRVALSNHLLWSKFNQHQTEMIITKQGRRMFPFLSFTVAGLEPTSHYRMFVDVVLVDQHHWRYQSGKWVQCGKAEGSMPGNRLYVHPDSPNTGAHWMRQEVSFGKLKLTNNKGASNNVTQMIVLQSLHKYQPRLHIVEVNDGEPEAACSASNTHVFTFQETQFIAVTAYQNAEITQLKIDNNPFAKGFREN

mTagBFP-tagged GATA3 DNA binding domain (aa 259-369) (from UniProt P23772 259-369) (domain or fragment)
reduction of the FRET interaction signal against WT T-bet DBD: 50%
